Laboratory results as given in publication doi:10.1101/2022.07.22.501112, “An unexpected histone chaperone function for the MIER1 histone deacetylase complex” (bioRxiv, 2022).
Numbered stars: 1 amine (or outer) side, 2 acyl side, 3 side chain; on linkers, the order of the positions; unused ones are H or OH. Square brackets hold non-standard residues; d marks the D form. Ends that are not written are not given here. Lys(Me3) = C[N+](C)(C)CCCC[C@H](N)C(=O)O; Ethylenediamine = C(CN[*:2])N[*:1]; 5‑FAM = fluorescent label

T1: E. coli expressed BAHD1(aa:588-780) (UniProt Q8TBE0 588-780)
T1 construct: BAHD1, BAH domain, residues 588-780; also called BAH domain of BAHD1; source: E. coli expressed
T1 sequence (looked up): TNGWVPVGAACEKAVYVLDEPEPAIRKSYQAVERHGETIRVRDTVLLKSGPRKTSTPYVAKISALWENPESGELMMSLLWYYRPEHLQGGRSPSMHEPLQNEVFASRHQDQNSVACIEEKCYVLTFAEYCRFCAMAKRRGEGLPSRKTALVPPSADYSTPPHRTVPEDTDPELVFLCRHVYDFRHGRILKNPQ


What was measured:
[1] = target: T2, Full length HDAC1(aa:1-482) (UniProt Q13547 1-482); assay: co-IP + SEC; FLAG-tagged MIER1 construct co-expressed with untagged HDAC1 in HEK293F; anti-FLAG M2 resin, TEV cleavage, Superdex S200 in 25 mM Tris/HCl pH 7.5, 50 mM potassium acetate, 0.5 mM TCEP; SDS-PAGE, bands identified by MS; conditions: partners not purified
T2 construct: also called histone deacetylase 1

[2] = target: T1, E. coli expressed BAHD1(aa:588-780); assay: fluorescence polarisation; 5 nM 5-FAM labelled histone peptide, BAHD1(aa:588-780) 0-142 uM, 25 mM Tris/Cl pH 7.5, 50 mM NaCl, 15 mins at 37 C; one-site binding model; conditions: both partners purified

T2 sequence (Q13547 whole entry): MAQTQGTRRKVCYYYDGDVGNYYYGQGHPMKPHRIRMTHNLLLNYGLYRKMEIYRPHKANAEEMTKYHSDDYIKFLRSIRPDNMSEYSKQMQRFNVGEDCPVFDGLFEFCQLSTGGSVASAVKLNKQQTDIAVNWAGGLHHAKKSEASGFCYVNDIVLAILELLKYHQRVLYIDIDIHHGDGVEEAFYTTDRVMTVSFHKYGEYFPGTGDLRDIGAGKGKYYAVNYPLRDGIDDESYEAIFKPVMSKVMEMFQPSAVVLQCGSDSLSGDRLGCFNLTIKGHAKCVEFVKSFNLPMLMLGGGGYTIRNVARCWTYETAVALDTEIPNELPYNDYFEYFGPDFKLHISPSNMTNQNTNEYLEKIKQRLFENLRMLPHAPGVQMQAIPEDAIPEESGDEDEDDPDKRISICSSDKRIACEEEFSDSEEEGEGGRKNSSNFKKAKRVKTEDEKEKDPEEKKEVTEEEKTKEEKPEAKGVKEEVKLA

Row | binding result [1] | binding result [2] | Binder
1 | binds |  | FLAG-tagged MIER1(aa:171-350), ELM2-SANT domain (domain or fragment, human, UniProt Q8N108 171-350, looked up, Captured on anti-FLAG resin by the tag; the tag was then cut off by TEV protease before gel filtration and SEC-MALS (21 kDa counted for the fragment); also called MIER ELM2-SANT; source: HEK293F, co-transfected with HDAC1; anti-FLAG resin, TEV cleavage, Superdex S200; not shown: 10xHis-3xFLAG, N-terminal, kept) DYIPSEDWKKEIMVGSMFQAEIPVGICRYKENEKVYENDDQLLWDPEYLPEDKVIIFLKDASRRTGDEKGVEAIPEGSHIKDNEQALYELVKCNFDTEEALRRLRFNVKAAREELSVWTEEECRNFEQGLKAYGKDFHLIQANKVRTRSVGECVAFYYMWKKSERYDFFAQQTRFGKKKY
2 |  | binds | PRKQLATKAAR[Lys(Me3)]SAPATGG-{Ethylenediamine-4‑Abu-5‑FAM} (The twelfth letter (K27) is trimethyl-lysine; also called H3 histone tail bearing a K27me3 modification; source: synthetic peptide, bought: Cambridge Research Biochemicals) [H3 16-35 K27me3 peptide]
